Results reported in doi:10.1101/2020.09.10.291773 (bioRxiv, 2020).

Molecular target: T1, HY5-S36A-GFP (Arabidopsis, UniProt O24646 1-168, S36A)
T1 sequence (looked up): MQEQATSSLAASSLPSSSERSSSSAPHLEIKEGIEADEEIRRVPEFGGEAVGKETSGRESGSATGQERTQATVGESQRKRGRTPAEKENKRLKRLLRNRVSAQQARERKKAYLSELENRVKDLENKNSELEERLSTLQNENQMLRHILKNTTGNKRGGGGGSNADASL
Assay: co-IP

- fold co-immunoprecipitated COP1 against the HY5-S36D-GFP line: 4 times
B1: COP1 (CONSTITUTIVE PHOTOMORPHOGENIC1), endogenous (natural protein, Arabidopsis (endogenous in seedlings), UniProt P43254 1-675, looked up)
chain: MEEISTDPVVPAVKPDPRTSSVGEGANRHENDDGGSGGSEIGAPDLDKDLLCPICMQIIKDAFLTACGHSFCYMCIITHLRNKSDCPCCSQHLTNNQLYPNFLLDKLLKKTSARHVSKTASPLDQFREALQRGCDVSIKEVDNLLTLLAERKRKMEQEEAERNMQILLDFLHCLRKQKVDELNEVQTDLQYIKEDINAVERHRIDLYRARDRYSVKLRMLGDDPSTRNAWPHEKNQIGFNSNSLSIRGGNFVGNYQNKKVEGKAQGSSHGLPKKDALSGSDSQSLNQSTVSMARKKRIHAQFNDLQECYLQKRRQLADQPNSKQENDKSVVRREGYSNGLADFQSVLTTFTRYSRLRVIAEIRHGDIFHSANIVSSIEFDRDDELFATAGVSRCIKVFDFSSVVNEPADMQCPIVEMSTRSKLSCLSWNKHEKNHIASSDYEGIVTVWDVTTRQSLMEYEEHEKRAWSVDFSRTEPSMLVSGSDDCKVKVWCTRQEASVINIDMKANICCVKYNPGSSNYIAVGSADHHIHYYDLRNISQPLHVFSGHKKAVSYVKFLSNNELASASTDSTLRLWDVKDNLPVRTFRGHTNEKNFVGLTVNSEYLACGSETNEVYVYHKEITRPVTSHRFGSPDMDDAEEEAGSYFISAVCWKSDSPTMLTANSQGTIKVLVLAA
